What was measured:
[1] = target: T1, human FcγRIIb extracellular domain, His-tagged (human, UniProt P31994 43-217); experiment: SPR Biacore, KD(SG1)/KD(variant)
T1 construct: also called FcgRIIb (human); not shown: C-terminal His-tag
T1 sequence: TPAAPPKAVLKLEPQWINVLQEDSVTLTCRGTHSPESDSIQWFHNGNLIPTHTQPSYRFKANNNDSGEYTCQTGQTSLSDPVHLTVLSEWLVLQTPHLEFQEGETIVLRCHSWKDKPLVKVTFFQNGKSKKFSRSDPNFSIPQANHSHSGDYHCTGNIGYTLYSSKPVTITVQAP

[2] = target: T2, cynomolgus monkey FcγRIIIaS extracellular domain, His-tagged (cynomolgus monkey, UniProt Q8SPW2 21-206 at identity 1.00)); experiment: SPR Biacore, KD(SG1)/KD(variant)
T2 construct: also called cyno FcγRIIIaS; cynoFcγRIIIaS; not shown: C-terminal His-tag
T2 chain: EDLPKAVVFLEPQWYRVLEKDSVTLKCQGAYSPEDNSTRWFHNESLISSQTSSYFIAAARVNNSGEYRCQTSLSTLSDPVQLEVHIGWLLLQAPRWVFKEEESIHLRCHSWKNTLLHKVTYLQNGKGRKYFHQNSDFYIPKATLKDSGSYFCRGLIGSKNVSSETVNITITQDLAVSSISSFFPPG

[3] = target: T3, human FcγRIIaH extracellular domain, His-tagged (human, UniProt P12318 34-217); experiment: SPR Biacore, KD(SG1)/KD(variant)
T3 construct: also called human FcγRIIa (type H); FcgRIIaH; not shown: C-terminal His-tag
T3 sequence: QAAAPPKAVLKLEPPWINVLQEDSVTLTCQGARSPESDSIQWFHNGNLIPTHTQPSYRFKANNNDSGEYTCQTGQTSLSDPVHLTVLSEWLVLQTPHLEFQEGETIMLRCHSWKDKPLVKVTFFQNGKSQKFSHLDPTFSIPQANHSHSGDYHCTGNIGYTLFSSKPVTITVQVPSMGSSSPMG

[4] = target: T4, cynomolgus monkey FcγRIIa1 extracellular domain, His-tagged (cynomolgus monkey); experiment: SPR Biacore, KD(SG1)/KD(variant)
T4 construct: also called cyno FcγRIIa1; cynoFcgRIIa1; not shown: C-terminal His-tag
T4 chain: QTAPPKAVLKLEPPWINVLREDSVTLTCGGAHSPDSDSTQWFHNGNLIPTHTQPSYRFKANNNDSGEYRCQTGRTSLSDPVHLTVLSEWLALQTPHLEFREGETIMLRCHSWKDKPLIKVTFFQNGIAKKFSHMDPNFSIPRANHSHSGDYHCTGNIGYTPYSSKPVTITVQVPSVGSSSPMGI

Human latent myostatin [5] = target: T5, Human latent myostatin (human, UniProt O14793 25-266; O14793 267-375); experiment: ELISA: biotinylated human latent myostatin (2 nM) on streptavidin-coated plate, antibody titrated, anti-human IgG-HRP, ABTS, OD405
T5 construct: Biotinylated in the ELISAs; also called human myostatin latent form
T5 sequence 1: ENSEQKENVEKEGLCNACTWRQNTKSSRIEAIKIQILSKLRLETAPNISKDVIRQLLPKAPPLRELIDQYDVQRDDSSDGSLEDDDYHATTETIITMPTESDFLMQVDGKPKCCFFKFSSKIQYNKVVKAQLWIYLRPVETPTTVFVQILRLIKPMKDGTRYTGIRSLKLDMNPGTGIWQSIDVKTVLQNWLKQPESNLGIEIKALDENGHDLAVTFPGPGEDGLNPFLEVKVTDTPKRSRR
T5 sequence 2: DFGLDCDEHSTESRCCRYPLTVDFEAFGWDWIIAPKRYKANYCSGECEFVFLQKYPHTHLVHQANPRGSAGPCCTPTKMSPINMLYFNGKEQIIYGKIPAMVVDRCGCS
Protocol: Uncoated ELISA plates (NUNC-IMMUNO plate MAXISORP™ surface, Nalge Nunc International) were coated with 20 μL of 50 nM streptavidin (GenScript) for 2 hour at room temperature. Plates were then washed with PBST three times and blocked with 50 μL 20% Blocking One (Nacalai Tesque) for overnight. On the next day, each well of the plates was incubated with biotinylated human latent myostatin at 2 nM/well/20 μL or biotinylated human latent GDF11 at 20 nM/well/20 μL for 2 hours. After washing, 20 μL of antibody sample was added to the wells and the plates were left for 1 hour. The plates were washed and 20 μL of anti-human IgG-horseradish peroxidase (HRP) (Abcam) diluted in HEPES-buffered saline was added, and the plates were left for another hour. The wells were washed again, and then 50 μL ABTS (KPL) was added to each well, and the plates were incubated for 1 hour.

Mature myostatin = target: T6, Mature myostatin (human, UniProt O14793 267-375); experiment: ELISA: biotinylated antigen (4 nM) on streptavidin-coated plate, antibody titrated, anti-human IgG-HRP, ABTS, OD405
T6 construct: Disulfide-bonded homodimer; Biotinylated in the ELISA; also called human myostatin mature form; active myostatin
T6 sequence: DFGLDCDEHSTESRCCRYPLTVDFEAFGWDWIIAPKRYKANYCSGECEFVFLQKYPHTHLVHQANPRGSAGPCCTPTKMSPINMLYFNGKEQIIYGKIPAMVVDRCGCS
Protocol: (§1) Uncoated ELISA plates (NUNC-IMMUNO plate MAXISORP surface, Nalge Nunc International) were coated with 20 μL of 50 nM streptavidin (GenScript) for 1 hour at room temperature. Plates were then washed with PBST three times and blocked with 50 μL 20% Blocking One (Nacalai Tesque) overnight. On the next day, each well of each plate was incubated with biotinylated mature myostatin, human or mouse biotinylated latent myostatin, or biotinylated recombinant mouse myostatin propeptide-Fc chimera protein (R&D Systems) at 4 nM/well/20 μL for 2 hours. After washing, 20 μL of antibody sample was added to the wells and the plates were left for 1 hour. The plates were washed and 20 μL of anti-human IgG-horseradish peroxidase (HRP) (Abcam) diluted in HEPES-buffered saline was added, and the plates were left for another hour. The plates were then washed again, and then 50 μL ABTS (KPL) was added to each well, and the plates were incubated for 1 hour.

Human latent myostatin [6] = target: T5, Human latent myostatin; experiment: as above
Protocol: as §1

Mouse latent myostatin = target: T7, Mouse latent myostatin (mouse, UniProt O08689 26-267; O08689 268-376, limits assumed); experiment: as above
T7 sequence 1: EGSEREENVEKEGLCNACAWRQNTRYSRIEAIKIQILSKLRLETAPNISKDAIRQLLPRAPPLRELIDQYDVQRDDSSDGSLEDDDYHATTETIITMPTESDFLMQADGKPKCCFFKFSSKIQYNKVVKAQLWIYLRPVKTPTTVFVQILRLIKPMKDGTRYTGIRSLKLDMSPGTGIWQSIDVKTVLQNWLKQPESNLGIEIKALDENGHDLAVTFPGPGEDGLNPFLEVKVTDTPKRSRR
T7 sequence 2: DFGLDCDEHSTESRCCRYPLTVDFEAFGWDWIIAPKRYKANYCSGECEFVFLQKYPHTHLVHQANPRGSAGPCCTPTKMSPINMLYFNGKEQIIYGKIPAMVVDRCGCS
Protocol: as §1

GST-hMSTN 101-200aa = target: T8, GST-hMSTN 101-200aa (human, UniProt A1C2U3 101-200 (Pongo pygmaeus entry)); experiment: Western blot with the antibody as probe on GST-tagged 100-amino-acid fragments of the human latent myostatin propeptide expressed in E. coli BL21 (lanes 1-8), GST control (lane 9) and human latent myostatin 100 ng (lane 10)
T8 sequence: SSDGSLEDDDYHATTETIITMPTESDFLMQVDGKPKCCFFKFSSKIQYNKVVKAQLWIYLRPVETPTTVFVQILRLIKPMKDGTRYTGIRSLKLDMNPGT
Description: (§2) Fragments of the N-terminal propeptide coding region of human latent myostatin were cloned into a pGEX4.1 vector so as to produce GST tagged propeptide fragments of 100 amino acid each, with 80 amino acid overlap (FIG. 22A). Protein expression was induced in transformed BL21 competent cells with Overnight Express Autoinduction System (Merck Millipore) and protein was extracted using the BUGBUSTER® protein extraction reagent (Novagen).

GST-hMSTN 81-180aa = target: T9, GST-hMSTN 81-180aa (human, UniProt A1C2U3 81-180 (Pongo pygmaeus entry)); experiment: as above
T9 sequence: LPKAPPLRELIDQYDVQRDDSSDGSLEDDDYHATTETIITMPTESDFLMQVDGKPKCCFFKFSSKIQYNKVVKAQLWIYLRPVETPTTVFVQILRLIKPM
Description: as §2

GST-hMSTN 61-160aa = target: T10, GST-hMSTN 61-160aa (human, UniProt O14793 61-160); experiment: as above
T10 sequence: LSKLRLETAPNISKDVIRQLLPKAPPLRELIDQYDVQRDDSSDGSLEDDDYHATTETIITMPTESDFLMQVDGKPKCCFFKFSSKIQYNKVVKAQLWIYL
Description: as §2

GST-hMSTN 41-140aa = target: T11, GST-hMSTN 41-140aa (human, UniProt O14793 41-140); experiment: as above
T11 sequence: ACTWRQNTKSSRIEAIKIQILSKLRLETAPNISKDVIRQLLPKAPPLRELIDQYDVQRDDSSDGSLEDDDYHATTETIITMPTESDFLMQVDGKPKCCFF
Description: as §2

B1: M103205H795-MY068/M103202L889-SK1 (antibody, human IgG1, kappa, name in EU numbering)
heavy: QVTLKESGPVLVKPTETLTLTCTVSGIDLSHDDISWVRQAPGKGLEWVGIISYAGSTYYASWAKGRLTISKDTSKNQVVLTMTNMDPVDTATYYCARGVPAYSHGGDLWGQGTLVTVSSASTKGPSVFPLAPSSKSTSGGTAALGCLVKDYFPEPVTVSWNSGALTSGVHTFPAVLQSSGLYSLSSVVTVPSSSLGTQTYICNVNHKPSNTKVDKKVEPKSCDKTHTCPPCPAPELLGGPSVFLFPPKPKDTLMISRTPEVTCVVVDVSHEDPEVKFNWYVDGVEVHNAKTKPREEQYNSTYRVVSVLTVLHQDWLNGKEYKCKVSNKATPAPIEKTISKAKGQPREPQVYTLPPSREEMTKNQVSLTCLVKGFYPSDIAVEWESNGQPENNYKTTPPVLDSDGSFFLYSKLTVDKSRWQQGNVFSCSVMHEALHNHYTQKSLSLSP
light: DIVMTQSPATLSLSPGERATLSCTSSQSVYHANWLSWFQQKPGQPPKLLIYWASTLAYGVPSRFSGSGSGTDFTLTISSLQPEDAATYYCAGGYGGGRYAFGQGTKVEIKRTVAAPSVFIFPPSDEQLKSGTASVVCLLNNFYPREAKVQWKVDNALQSGNSQESVTEQDSKDSTYSLSSTLTLSKADYEKHKVYACEVTHQGLSSPVTKSFNRGEC
notes: Substitution introduced into M103205H795-SG1; EU numbering
In the case of B1, the “KD fold (SG1 = 1)” value [1] is reported as 2.2 fold and the “KD fold (SG1 = 1)” value [2] is reported as 0.62 fold.

B2: M103205H795-MY124/M103202L889-SK1 (antibody, human IgG1, kappa, name in EU numbering)
heavy: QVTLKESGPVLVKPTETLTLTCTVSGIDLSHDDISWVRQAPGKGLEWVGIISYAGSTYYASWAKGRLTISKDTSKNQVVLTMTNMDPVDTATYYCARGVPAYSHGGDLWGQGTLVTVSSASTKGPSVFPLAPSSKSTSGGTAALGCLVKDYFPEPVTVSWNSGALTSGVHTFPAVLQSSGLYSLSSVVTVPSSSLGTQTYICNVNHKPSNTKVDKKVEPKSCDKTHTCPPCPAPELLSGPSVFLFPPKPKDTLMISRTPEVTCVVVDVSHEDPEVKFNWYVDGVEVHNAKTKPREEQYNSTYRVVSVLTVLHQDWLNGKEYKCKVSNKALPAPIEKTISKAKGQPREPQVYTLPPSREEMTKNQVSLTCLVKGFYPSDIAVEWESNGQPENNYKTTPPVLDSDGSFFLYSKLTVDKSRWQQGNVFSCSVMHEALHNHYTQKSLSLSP
light: DIVMTQSPATLSLSPGERATLSCTSSQSVYHANWLSWFQQKPGQPPKLLIYWASTLAYGVPSRFSGSGSGTDFTLTISSLQPEDAATYYCAGGYGGGRYAFGQGTKVEIKRTVAAPSVFIFPPSDEQLKSGTASVVCLLNNFYPREAKVQWKVDNALQSGNSQESVTEQDSKDSTYSLSSTLTLSKADYEKHKVYACEVTHQGLSSPVTKSFNRGEC
notes: as for B1
For B2, the “KD fold (SG1 = 1)” value [3] was 4.5 fold and the “KD fold (SG1 = 1)” value [4] was 1.2 fold.

B3: MS_MST1032Ha-G1m/MST1032La-k0MC (antibody, human IgG1, kappa, V domains shown)
VH: QSLEESGGRLVTPGGSLTVTCRVSGIDLSSYDISWVRQAPGKGLEWIGIISYAGSTYYASWAKGRFTISKTSTTVDLKMTSLTTEDTATYFCARGVPAYSTGGDLWGPGTLVTVSS
VL: AQVLTQTASSVSAAVGGTVTINCQSSQSVYDNNWLSWFQQKPGQPPKLLIYWASTLASGVPSRFKGSGSGTQFTLTISDLECDDAATYYCAGGYGGGLYAFGGGTKVEIKR
notes: Rabbit/human chimeric antibody; also called MST1032-G1m
For B3, the “EC50 (read off the curve)” value (Human latent myostatin [5]) was about 0.02 µg/mL, the binding result (Mature myostatin) was “no binding (tested: 10 ng/µL (log 1))” and the “EC50 (read off the curve)” value (Human latent myostatin [6]) was about 0.008 µg/mL. For the same binder, the “EC50 (read off the curve)” value (Mouse latent myostatin) was about 0.01 µg/mL.

B4: MST1573 (antibody, human IgG1, kappa, V domains shown)
VH: QSVEESGGRLVTPGTPLTLTCTVSGIDLSSSSMIWVRQAPGEGLKYIGFISKSGYTYYASWAKGRFTISKTSTTVDLKITSPTTEDTATYFCARGGYSGDWDYFTLWGPGTLVTVSS
VL: DIVMTQTPASVEAAVGGTVTIKCQASESIGNALAWYQQKPGQPPKLLIYGAFNLESGVPSRFRGSGSGTEYTLTISDLECDDAATYYCQGYFWSSSTIYAFWAFGGGTKVEIKR
notes: Constant regions as for MST1504
B4: no binding (GST-hMSTN 101-200aa); no binding (GST-hMSTN 81-180aa); no binding (GST-hMSTN 61-160aa). B4: no binding (GST-hMSTN 41-140aa).
